# Data as given in US20160040149A1, “Compositions Having Dicamba Decarboxylase Activity and Methods of Use” (priority 2013, published 2016).
# B1: 82 (protein, listed as Rhodopseudomonas palustris)
# chain: MAQNETPVIAIEEHYWDPEMVARFPAGENASPFSTLLTELGDVRLRAMDEAGIDVQVLSHGAPAAQKLPPDVAPELTRRVNDRLAEACARFPNRFAAFAALPTPAPEAAARELERCVRDLGFKGAMIHGLTNGLFIDDKRFWPIFEVAEKLDVPIYLHPSVPHADVTRYYYDDYAREFPTVIRPAWGFTVETATQAIRLILSRALESYPRLQIILGHLGETLPFLLWRINQALARPGQTPLDFRKQFCDHFHVTTSGFFSTPALICTMLELGIDRIMFAVDYPYVVNRDGTDWVQQLQISPDDKRKLVGGNARRLLKL
# B2: 81 (protein, listed as Verticillium dahliae)
# chain: MAASTKPKVVDIHTHMYPPSYIDILTSRTAIPVVRTFPQAADPRLILLDAEQQALDAALQDPTAKPPGRPLTSHYASLDQKIHFMDTHSIDISVVSLANPWLDFIEPKEAAATARSVNDEFEAMCASQPGRLFFFAALPLTAPLPALLEAVRHVAELEHCRGVILGTSGLGSGLDDPELVPVLEAVAAAALTVFLHPHYGLPNDVWGPRASAEYGHVLPLALGFPMETTIAVARMYLAGVFDRVPALRMLLAHSGGTLPFLAGRIESCILHDGQLVAEGKVGAARRTIWDVLREQVYLDAVIYSEIGLKAAIAASGGADRLMFGTDHPFFPPLGTDEQAKKESRINAGGSRPMITGNAMINGHGGLCNHITQSDYQDVVL
# B3: 83 (protein, listed as Mycobacterium rhodesiae)
# chain: MALIALEEHYAWSPVSAGNVVGSWLETHNVTAYQRLYDRGPLRLEQMDAAGIDFQILSLFDPGVQDDDDTARAVENARRANDDLAETVRAAPDRFGGFATLAPQDPDAAAAELERAVGELGLVGGLINGHTHGRYLDDPAYLGLFECAQRLGVPIYLHPTTPHPAVMDAWFAPYVKDGLHLASWGFAAETGTHALRLIYSGLFDTFPRLQMILGHLGEMLPYAAYRIDRYYGLGGGDDGGRLARLPSEYLRDNFHVTTSGNFNPVAFACALDVMGPDRLMFSVDYPMDDNVTGAEFLRNLEVDDDVRRKVAGENALQLFGDKIPRR
# B4: 84 (protein, listed as Mycobacterium rhodesiae)
# chain: MASLIALEEHYAWDPASEGNVVATWLRANNGVAYDRLYDRGPLRIEQMDAAGIDFQILSLFDPGVQDEVDAVRAVDLARRANDDLAESVRANPSRFGGFATLATQQPDAAVAEFDRAVTELGLVGGLINGHCQGRYLDDPAYEALFSRAEALGAPIYLHPTTPHPAVMDAWFAPYVGDGLHLASWGFAAETGTHVLRLIYSGLFDKFPRLQMIIGHLGEMLPFAAYRIDRYYGLGGGGTGHTLQHLPSDYLRNNFHVTTSGNFCSPALDCTLDVMGADRVMFSVDYPMDDNQTGADFLASYPMDDTNRRKVASENALRLFGDRIPAALRN
# B5: 88 (protein, listed as Starkeya novella)
# chain: MARKIALEEHFTTPELAGKYVARPTQSDALFADIERRLADFDELRLEMMDRAEIDLMVLSVTTPGVQGVRDTGEAIRLARGANDFLAREVQKRPSRYAGFAHLAMQDAEAAATELERAVRELGFRGALINGQTNGHYLDEDQYAPFWERVQELDVPVYLHPGNMADSPAMFAHRPELGGPIWAWTAETAAHALRLVFGGTFTRFPGAKVILGHMGETLPFLLWRLDSRREFDLGEKLAPDALPSAIIKRNIAVTTSGVCDPAPLVAALQALSDDNVMFSVDYPYEDPQLASKFIETAPIGEETRAKVCHGNAERLLGL
# B6: 87 (protein, listed as Novosphingobium sp.)
# chain: MASDIATAADLQTGGRQGYLRIATEEAFATRDQIDVYLRMVRDGTADRGMTSLWGFYAQSPSARATQIIERLLDLGEQRLADMDAAGIDKAVLALTSPGVQPLLDMEEARRIAGNANDRLAERCAAHPDRFIGMTAVAPQDPQWSAREILRGATQLGFKGVQINSHTQGRYLDEPFFDPIFRALGDVGQPLYIHPGTPPDSMIGPLLDAGLDGAIYGFGVETGMHLLRLITAGIFDRYPDLQIMVGHMGEALPYWLYRLDYMHQAGIRSQRYERMRPLKRTIAGYFRSNVLVTCSGMAWEPAIQFARQVMGEDRVMYAMDYPYQYEADEVRALDVMDLSPESKRKFFQTNAERWFDL
# B7: 86 (protein, listed as Sphingopyxis alaskensis)
# chain: MALGASVASREASAQMAKAPMRKIATEEAFATPELAKAWLEIARSEPNSSLDIPTGILSIFDNPRPGSNQDRFRRQLLDVDAERIRDMDEAGVDMQLLSVTIPGVQIFEPARAGELAVTTNDHLAAAIARRPTRFAGLACFAPHDPVQATREMERAVNALGLKGFIVNSHTQDLYLDDPRFAPVLEAAQSLDCPIYLHPRAPSNGMAAPFRDYSMGGSIWGFGVEAGTHAVRMILSGVFDRYPRLRIVLGHMGEALPFWMWRLDHMAARRAKDGRMKPLSLAPSEYFKRNFAVTTSGFESPDVLDLVIKVAGIENIMWAIDYPYESSRDAVTFIEGADLTASQRASIFHRNAVRHFRLS
# B8: 4 (protein, listed as Lactobacillus buchneri)
# chain: MAKVITLEEHFSSQKLGQKMAEVLPKRPIGNVSPKMQDYMQRSLPPEAELEDVTGSRIQWMDQHQISMQILSYGNQNPQNSDPKFAVELTKLANDELAKAVAKAPDRFRAFASLPVSHPTDAAAELKRGVEELGFKGAMLVRPTSQAHPFFDDPFYLPIFEAAANLNVPVYLHPSFPDSQIIDYYYSNGPWDDKVSGILGTAGYGWHTDVGIQTVRLLLSGVFEKYPNLKLISGHWGEFASFALERMDQVMYPETNLSEPISKIYRDHVYVTPSGILTEPQLKFVKDEVGIEHLLYSIDYPYIKPENSGSFIESSPLTDEEKELFAHGNAEKLLQL
# B9: 85 (protein, listed as Maritimibacter alkaliphilus)
# chain: MAADRKPGLVSVEEGFMIPEVVAELSRIAGGVPSMKSGPIAGPFMDDLLDIGKGRVARMDADGVAVQILALAAPGVQKFDPDTALALSRLTNDRLAEAIAAHPARFGGLAAAPPQAAREGAKELDRAITTLGLNGLIVNSHTNDLYLDDPSFWPLLEAAEALDVPVYLHPREPAAGIEGGLMAMTGFTVGWAYAVETGTHLLRMIAAGVFDRFPRLRIVLGHLGEMIPFMLDRIDNRYPFEMGVTGAKPLPRKPSDYFRDHVTVATSGMNFNAPMRAAIEVLGADKVMFAADYPMERQDEEVAKFAALDLTPDERKRIGEDNARRVFGL
# B10: 89 (protein, listed as Erwinia billingiae)
# chain: MATNRRDFLKNATAVMAGSTVFAGSSHFASAAAVEPAAVQPPRRIIALEEHFMLPEFVGYLHETQQNLRNGLVDKVVTPLSDFGKGRLEIMDKNGVDFAVLSLSGPGVQAEPDRVKAVRLARYANDKLATEMQKNPRRYGGFAHLAMQDPLAAANELERCVKQLHMQGGMINGETDGLYLDDRRYDVFWERVEALNVPIYIHPGNPPDYPHMFAGHPEMWGPVWSWAVETCSHALRLIFSGTFDRYPGARVILGHMGETLPIQLWRLDSRYQIANQTFAIKHPPSWYAKKNITITTSGVCNDAALRCALDSMGSENVMFSIDYPFESTEIAVNWLKTANITEQERNAVAWGNATSILRLGA
# B11: 80 (protein, listed as Cordyceps militaris)
# chain: MAAASTPVVVDIHTHMYPPSYIAMLEKRQTIPLVRTFPQADEPRLILLSSELAALDAALADPAAKLPGRPLSTHFASLAQKMHFMDTNGIRVSVISLANPWFDFLAPDEAPGIADAVNAEFSDMCAQHVGRLFFFAALPLSAPVDAVKASIERVKNLKYCRGIILGTSGLGKGLDDPHLLPVFEAVADAKLLVFLHPHYGLPNEVYGPRSEEYGHVLPLALGFPMETTIAVARMYMAGVFDHVRNLQMLLAHSGGTLPFLAGRIESCIVHDGHLVKTGKVPKDRRTIWTVLKEQIYLDAVIYSEVGLQAAIASSGADRLMFGTDHPFFPPIEEDVQGPWDSSRLNAQAVIKAVGEGSSDAAAVMGLNAVRVLSLKAE
# Assay: Saturation mutagenesis of SEQ ID NO:109: dicamba decarboxylation activity of point mutants (CO2 released), fold of backbone (Tables 7, 8, Megatable 1)
# Details: decarboxylation activity (CO2 released) of point mutant vs unmutated backbone protein; backbone SEQ ID NO: 109
row,Molecule,Fold Activity [fold]
1,B1,0.9
2,B2,1.2
3,B3,1.9
4,B4,1
5,B5,1.3
6,B6,1.4
7,B7,1.4
8,B8,1
9,B9,1.4
10,B10,3.1
11,B11,0.8
